# From PMC11231238, “SPRING licenses S1P-mediated cleavage of SREBP2 by displacing an inhibitory pro-domain” (Nature Communications, 2024)
# T1: FLAG-S1P_(ecto)-His10, matured C-form (human, UniProt Q14703 187-998)
# T1 construct: human S1P (MBTPS1); expressed as IgK leader-FLAG-residues 23-998-His10; after autoproteolysis the His10-bearing C-form; The N-terminal FLAG tag leaves with the A-domain; also called WT S1P_(ecto); C-form of S1P_(ecto); source: HEK 293S GnTI- (BacMam baculovirus), secreted, purified (NiNTA, gel filtration); HEK 293T, transfected, secreted, in supernatant; not shown: His10, C-terminal, kept
# T1 sequence (looked up): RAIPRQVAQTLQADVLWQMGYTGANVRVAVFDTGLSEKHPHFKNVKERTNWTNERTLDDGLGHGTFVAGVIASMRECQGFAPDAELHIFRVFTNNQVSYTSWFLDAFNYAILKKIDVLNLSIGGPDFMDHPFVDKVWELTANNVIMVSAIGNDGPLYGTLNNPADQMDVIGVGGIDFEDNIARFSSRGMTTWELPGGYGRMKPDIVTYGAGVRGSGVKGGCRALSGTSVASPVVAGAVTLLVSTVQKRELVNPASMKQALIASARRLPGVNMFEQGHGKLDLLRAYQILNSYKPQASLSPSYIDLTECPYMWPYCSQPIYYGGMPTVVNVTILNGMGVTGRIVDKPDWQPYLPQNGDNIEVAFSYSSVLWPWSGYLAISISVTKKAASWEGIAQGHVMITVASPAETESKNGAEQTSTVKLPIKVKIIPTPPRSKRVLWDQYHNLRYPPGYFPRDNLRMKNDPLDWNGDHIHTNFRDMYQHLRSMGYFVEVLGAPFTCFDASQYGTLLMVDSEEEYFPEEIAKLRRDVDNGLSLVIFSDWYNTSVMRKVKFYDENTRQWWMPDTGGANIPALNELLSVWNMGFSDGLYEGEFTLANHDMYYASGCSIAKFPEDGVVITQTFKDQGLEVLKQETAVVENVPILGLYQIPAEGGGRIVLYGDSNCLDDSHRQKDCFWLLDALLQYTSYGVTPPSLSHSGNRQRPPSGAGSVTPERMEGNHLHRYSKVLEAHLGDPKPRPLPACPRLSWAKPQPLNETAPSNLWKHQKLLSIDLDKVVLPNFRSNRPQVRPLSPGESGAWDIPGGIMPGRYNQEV
# B1: cleaved A-domain of FLAG-S1P_(ecto)-His10 (domain or fragment, human, UniProt Q14703 23-137, looked up)
# chain: DRLEKKSFEKAPCPGCSHLTLKVEFSSTVVEYEYIVAFNGYFTAKARNSFISSALKSSEVDNWRIIPRNNPSSDYPSDFEVIQIKEKQKAGLLTLEDHPNIKRVTPQRKVFRSLK
# notes: human S1P (MBTPS1) A pro-domain, released by autoproteolysis from the construct FLAG-residues 23-998-His10; the construct begins at residue 23; in the cryo-EM map the density ends after K137 (cleavage at the B site); cleavage at the alternative B' site is possible too; also called A pro-domain; S1P A-domain; source: HEK 293S GnTI- (BacMam baculovirus), secreted, co-purified with S1P_(ecto) …
# Target: T1, FLAG-S1P_(ecto)-His10, matured C-form
# Assay: pull-down; HEK 293T supernatants of co-transfected cells with 50 mM imidazole; NiNTA resin holds the His10 tag of S1P_(ecto), 1-2 h at 4 °C; washes in 150 mM NaCl, 50 mM HEPES-NaOH pH 7.5, 50 mM imidazole; elution with 300 mM imidazole; immunoblot anti-HA, anti-His, anti-FLAG
# Details: partners not purified
binder,measurement,value
B1,binding result,binds
